{
  "source": "paper PMC4534193",
  "about": "“Binding of the Lactococcal Drug Dependent Transcriptional Regulator LmrR to Its Ligands and Responsive Promoter Regions” (PLoS ONE, 2015)",
  "key": {"[1]": {"molecular_target": "T1, LmrR-Strep (Lactococcus lactis) (UniProt A2RI36)", "T1 sequence": "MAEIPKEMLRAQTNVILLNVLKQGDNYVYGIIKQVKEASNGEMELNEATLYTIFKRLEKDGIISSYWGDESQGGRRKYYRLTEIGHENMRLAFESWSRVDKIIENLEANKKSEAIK", "assay": "MST", "conditions": "MST: 20 mM Tris-HCl pH 8.0, 1 mM EDTA, 50 nM Cy5-DNA, 30 min incubation at 30 C; 30% LED, 40% laser power (30% laser for PlmrR); Hill fit"}, "[2]": {"test_system": "LmrR-Strep (Lactococcus lactis)", "assay": "MST", "conditions": "apparent Kd, MST: 20 mM Tris-HCl pH 8.0, 1 mM EDTA, 50 nM Cy5-DNA, 30 min incubation at 30 C, 30% LED, 40% laser power (30% laser for PlmrR), Hill fit"}},
  "data": [
    {"substance": "ACTACTTTACATTAAATTGAATTTTCAATTTCATTTTACTTCAAAATAATTTCAATAAATTTTTTGAGAAGATAATTATAACATTATTTTTTTTAGTAAACAAGCATTAATTGTTAATGCTGTTAAAGATTACAATAGTTAGTTTCATAAATGGTAAACTAACAAAAATATTGTAACGCTTTTTAAAGTTTAAGTCAACGATTTACGACGTTATTTGTATCTTCTTATGTTTTTATAAATTTAGAATTTAAAGTAAGGAATGAATCG (double strand) [PlmrCD no PadR (half of PadR motif deleted)]", "values": [
      {"measurement": "binding", "setting": "[1]", "value": "no binding"}
    ]},
    {"substance": "CTCCTTGTTTTAGGACATTGAGCAAAATTACATTGGTTTGGGCTCGTAACATTTCTTTTGGTATTTCTGCCATTCTTTTTCCTTTCTATCATTTTAAACAAAGTATATTATACTTCACATTACTATGTAAGTCAAGGTACTTAAACTATTTATATAATATTTTATTTTTGACGACTTTCTACTATATAAGATAAGAAAAAATCATCTCCG (double strand) [PlmrR (lmrR promoter/operator region)]", "values": [
      {"measurement": "Kd", "setting": "[1]", "value": 1400, "unit": "nM"}
    ]},
    {"substance": "PlmrCD (lmrCD promoter/operator region)", "values": [
      {"measurement": "Kd", "setting": "[2]; 50 uM riboflavin", "value": 195, "unit": "nM"},
      {"measurement": "Kd", "setting": "[2]; no riboflavin, Hill coefficient 1.78 +/- 0.17", "value": 82.1, "unit": "nM"}
    ]},
    {"substance": "PlmrCD -62bp", "values": [
      {"measurement": "Kd", "setting": "[2]; no riboflavin", "value": 62, "unit": "nM"}
    ]},
    {"substance": "PlmrR (lmrR promoter/operator region)", "values": [
      {"measurement": "Kd", "setting": "[2]; 50 uM riboflavin, 30% laser power", "value": 5120, "unit": "nM"},
      {"measurement": "Kd", "setting": "[2]; no riboflavin, Hill coefficient 2.43 +/- 0.19, 30% laser power", "value": 1400, "unit": "nM"}
    ]},
    {"substance": "TTCTAGAGTTAAATAATGTAAACTACTTTACATTAAATTGAATTTTCAATTTCATTTTACTTCAAAATAATTTCAATAAATTTTTTGAGAAGATAATTATAACATTATTTTTTTTAGTAAACAAGCATTAATTGTTAATGCTGTTAAAGATTACAATAGTTAGTTTCATAAATGGTAAACTAACAAAAATATTGTAACGCTTTTTAAAGTTTAAGTCAACGATTTACGACGTTATTTGTATCTTCTTATGTTTTTATAAATTTAGAATTTAAAGTAAGGAATGAATCG (double strand) [PlmrCD -62bp]", "values": [
      {"measurement": "Kd", "setting": "[1]", "value": 62, "unit": "nM"}
    ]}
  ]
}
